# Measurements as given in the nanobody polyreactivity screen of Harvey et al. (2022).
# Assay: yeast display, Sf9 membrane polyspecificity reagent, FACS + sequencing; frameworks hold sequencing errors
# In short: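 Polyreactivity labels are assigned by the sorting gate from which each nanobody was recovered. The gates were low and high (top ~1%), set on anti-HA fluorescence for expression and streptavidin fluorescence for reagent binding. Before sorting, galactose-induced (36–48 hours) yeast display cells were stained for 1 hour at 4 °C with 10% biotinylated, detergent-solubilized Sf9 membrane reagent.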
row,Sequence,polyreactivity (PSR sort gate)
1,QVQLVESGGGLVQAGGSLRLSCAASGSIFTHNAMGWYRQAPGNERELVAAISSGGSTNYADSVKGRFTISRDNAKNTVYLQMNSLKPEDTAVYYCAKSIDGWYWRRRRYDYWGQGTQVTVSS,low polyreactivity
2,QVQLVESGGGLVQAGGSLRLSCAASGSIFTHYAMGWYRQAPGKERELVAAIARRGGSTYYADSVKGRFTISRDNAKNTVYLQMNSLKPEDTAVYYCAKSPDTAKEYDYWGQGTQVTVSS,high polyreactivity
3,QVQLVESGGGLVQAGGSLRLSCAASGSIFTINAMGWYRQAPGKERELVAAISFSGGRTYYADSVKGRFTISRDNAKNTVYLQMNSLKPEDTAVYYCAAPFYYYGVRFDYWGQGTQVTVSS,high polyreactivity
4,QVQLVESGGGLVQAGGSLRLSCAASGSIFTKYAMGWYRQAPGKERELVAAISQGGASTRYADSVKGRFTISRDNAKNTVYLQMNSLKPVDTADEYCAAKSRHFWMDYWGQGTQVTVSS,high polyreactivity
5,QVQLVESGGGLVQAGGSLRLSCAASGSIFTLYAMGRYRQAPGKERELVAAITWSGGSSYYADSVKGRFTISRDNAKNTVYLQMNSLKPEDTAVYYCAKDYLAGGPWEGLVEREYDYWGQGTQVTVSS,low polyreactivity
6,QVQLVESGGGLVQAGGSLRLSCAASGSIFTLYAMGWYRQAPGKDRELVATINWSGGSTSYADSGKGRFTISRDNAKNTVYLQMNSLKPEETAVYYCARLGTYTVVTYDYWGQGTQVTVSS,low polyreactivity
7,QVQLVESGGGLVQAGGSLRLSCAASGSIFTLYAMGWYRQAPGKERELVAAITSGGRTYYADSVKGRFTISRDNAKNTVYLQMKSLKPEDTAVYYCNAVSRSWDFEYWGQGTQVTVSS,high polyreactivity
8,QVQLVESGGGLVQAGGSLRLSCAASGSIFTPNTMGWYRQAPGKEREFVAAITFSGGSTYYADSVKGRFTISRDNAKNTVYLQMNSLKPEDTAVYYCAAVYPTYDWYTPAYYYWGQGTQVTVSS,low polyreactivity
9,QVQLVESGGGLVQAGGSLRLSCAASGSIFTPYAMGWSRQAPGKERELVAVISWRVDSTYYADSVKGRFTISRDNAKNTVYLQMNSLKPEDTAVYYCAAKSYLLAPFGSGNRWSRYDYWGQGTQVTVSS,high polyreactivity
10,QVQLVESGGGLVQAGGSLRLSCAASGSIFTPYAMGWYRQAPGKERELVAVISWRVDSTYYADSVKGRFTISRDNAKNTVYLQMNSLKPEDTAVYYCAAKSYLLAPFGSGNRWSRYDYWGQGTQVTVSS,high polyreactivity
11,QVQLVESGGGLVQAGGSLRLSCAASGSIFTPYAMGWYRQEPGKERELVAAISRSGGSTYYADSVKGRFTISRDNAKNTVYLQMNSLKPEDTAVYYCAVVVYDIYGYESDYWGQGTQVTVSS,low polyreactivity
12,QVQLVESGGGLVQAGGSLRLSCAASGSIFTPYTMVWYRQAPGKERELVAAIRPNSGSTYYADSVKGRFTISRDNAKNTVYLQLNSLKPEDTAVYYCNAQCYGPGGGYFWSYDYWGQGTQVTVSS,low polyreactivity
13,QVQLVESGGGLVQAGGSLRLSCAASGSIFTRNAMGWYRQAPGKERELVAAITSGGRTYYADSVKGRFTISRDNAKNTVYLQMNSLKPEDTAVYYCNAYAWGWYDYWGQGTQVTVSS,high polyreactivity
14,QVQLVESGGGLVQAGGSLRLSCAASGSIFTRNAMGWYRQAPGKERELVASISWRGGSTYYADSVKGRFTISRDNAKNTVYLQMNSLKPEDTAVYYCNRRAYRNGYGFRDGTWEYDYWGQGTQVTVSS,high polyreactivity
15,QVQLVESGGGLVQAGGSLRLSCAASGSIFTRNAMGWYRQAPGKERELVATIRKNGASTTYADSVKGRFTISRDNAKNTVYLQMNSLKPEDTAVYYCARDHHTKYNYWGQGTQVTVSS,low polyreactivity
16,QVQLVESGGGLVQAGGSLRLSCAASGSIFTRNAMGWYRQAPGKERELVATITSNDGSTNYADSVKGRFTISRDNAKNTVYLQMNSLKPEDTAVYYCNRSYGVYSEFDYWGQGTQVTVSS,low polyreactivity
17,QVQLVESGGGLVQAGGSLRLSCAASGSIFTRNTMGWYRQAPGKERELVAAITSSGGSTYYADSVKGRFTISRDTAKNTVYLQMNSLKPEDTAVYYCAADVGVYYYSFYYWGQGTQVTVSS,high polyreactivity
18,QVQLVESGGGLVQAGGSLRLSCAASGSIFTRYAMGWYRQAPGKERELVAAISYRGDRTYYADSVKGRFTISRDNAKNTVYLQMNSLKPEDTAVYYCAATVQYSPIYDYWGQGTQVTVSS,high polyreactivity
19,QVQLVESGGGLVQAGGSLRLSCAASGSIFTRYAMGWYRQAPGKERELVAAITKSGSRTYYADSVKGRSTISRDNAKNTVYLQMNSLKPEDTAVYYCATLQGDSSSQYDYWGQGTQVTVSS,high polyreactivity
20,QVQLVESGGGLVQAGGSLRLSCAASGSIFTRYAMGWYRQAPGKERELVAVISVSGGRTYYADSVKGRFTISRDNAKNTVYLQMNSLKPEDTAVYYCAVGVLYAGYFYRYRYYYWGQGTQVTVSS,high polyreactivity
21,QVQLVESGGGLVQAGGSLRLSCAASGSIFTSYAVMGWYRQAPGKERELVAVITGGGITTYADSVKGRFTISRDNAKNTVYLQMNSLKPEDTAVYYCATDGWYHSEYDYWGQGTQVTVSS,low polyreactivity
22,QVQLVESGGGLVQAGGSLRLSCAASGSIFTSYGMGWYRQAPGKERELVAAITYSGDRTYYADSVKGRFTISRDNAKITVYFQMNSLIPEDTAVYYCNVAYVYGSFRRRPMGYWGQGTQVTVSS,high polyreactivity

row,Sequence,polyreactivity (PSR sort gate)
1,QVQLVESGGGLVQAGGSLRLSCAASGSIFTTYTMGWYRQAPGKERELVAAITAGGGTTYYADSVKGRFTISRDNAKNTVYLQMNSLKPEDTAVYYCAAANSFYYIATGEYDYWGQGTQVTVSS,high polyreactivity
2,QVQLVESGGGLVQAGGSLRLSCAASGSIFTVNAMGWYRQAPGKEREFVAAITGGGTSTYYADSVKGRFTISRDNAKNTVYLQMNSLKPEDTAVYYCAATTYHYSPTYGYWGQGTQVTVSS,low polyreactivity
3,QVQLVESGGGLVQAGGSLRLSCAASGSIFTVNAMGWYRQAPGKERELVAAISSGGSTHYADSVKGRFTISRDNAKNTVYLQMNSLKPEDTAVYYCAAVYVPYYGYSTRYDYWGQGTQVTVSS,low polyreactivity
4,QVQLVESGGGLVQAGGSLRLSCAASGSIFTVNAMGWYRQAPGKERELVATITNGGGTYYADSVKGRFTISRDNAKNTVYLQMNSLKPEDTAVYYCAARTWGHYDYWGQGTQVTVSS,low polyreactivity
5,QVQLVESGGGLVQAGGSLRLSCAASGSIFTVNAMGWYRQARGKERELVAAISSGGSTHYADSVKGRFTISRDNAKNTVYLQMNSLKPEDTAVYYCARDRPGDYAGYDYWGQGTQVTVSS,low polyreactivity
6,QVQLVESGGGLVQAGGSLRLSCAASGSIFTVYAMGWYRQAPGKERELVAAISSSGGTTYYADSVKGRFTISRDNAKNTVYLQMTSLKPEDTAVYYCAAPTHSPYDYWGQGTQVTVSS,low polyreactivity
7,QVQLVESGGGLVQAGGSLRLSCAASGSIFTVYGMGWYRQAPGKERELVAAISRSGGSTYYADSVKGRFTISRDNAKNTVYLQMNSLKPEDTAVYYCNADLVYNTLIYSGGDEYDYWGQGTQVTVSS,high polyreactivity
8,QVQLVESGGGLVQAGGSLRLSCAASGSIFTWYAMGWSRPAPGKERELVAAITRGGSTYADSVKGRFTISRDNAKNTVYLQMNSLKPEDSAVYYCNAVYGVYDFNYWGQGTQVTVSS,low polyreactivity
9,QVQLVESGGGLVQAGGSLRLSCAASGSIFTWYAMGWYRQAPGKEREFVDSITGSGGSTYYADSVKGRFTISRDNAKNTVYLQMNSLKPEDTAVYYCAKGHVYSSYRYRLRSTAFGYWGQGTQVTVSS,high polyreactivity
10,QVQLVESGGGLVQAGGSLRLSCAASGSIFTYNAMGWYRPAPGKERELVAAINTSGSTNYADSVKGRFTISRDNAKNTVYLQMNSLKPEDTAVYYCAAGIVVTGYDYWGQGTQVTVSS,low polyreactivity
11,QVQLVESGGGLVQAGGSLRLSCAASGSIFTYNAMGWYRQAPGKERELVAAITRSGGRTYYADSVKGRFTISRDTAKNTVYLQMNSLKPEATAVYYCNTLRVGWGQGTQVTVSS,high polyreactivity
12,QVQLVESGGGLVQAGGSLRLSCAASGSIFTYNAMGWYRQAPGKERELVAVISWSGGSTYYADSVKGRFTISRDNAKNTVYLQMNSLKPEDTAVYYCNAYYYRPYGNKYGYWGQGTQVTVSS,high polyreactivity
13,QVQLVESGGGLVQAGGSLRLSCAASGSIFTYNVMGWYRQAPGKERELVASISWSGGRTYYADSVKGRFTISRDNAKNTVYLQMNSLKPEDTAVYYCNKVRPPVYFPNRDYWGQGTQVTVSS,low polyreactivity
14,QVQLVESGGGLVQAGGSLRLSCAASGSIFTYYAMGWYRPAPGKERELVATITRRGGRTYYADSVKGRFTISRDNAKNTVYLQMNSLKPEDTAVYYCATRIRTVAYNYWGQGTQVTVSS,high polyreactivity
15,QVQLVESGGGLVQAGGSLRLSCAASGSIFTYYAMGWYRQAPGKERELVADISKRGGSTYYADSVKGRFTISRDNAKNTVYLQMNSLKPEYTAVYYCATRARYTWRAFEYWGQGTQVTVSS,low polyreactivity
16,QVQLVESGGGLVQAGGSLRLSCAASGSIFVANAMGWYRQAPGKETELVAAISQDGGTKYYADSVKGRFTISRDNAKNTVYLQMNSLKPEDTAVYYSAAEYPSFPEDDEYDYWGQGTQVTVSS,low polyreactivity
17,QVQLVESGGGLVQAGGSLRLSCAASGSIFVAYAKGWYRPAPGKERELVAAISSSGGTTYYADSVKGRFTISRDNAKITVYLQMNSLKPEDSAVYYCAARDYKYYYWGQGTQVTVSS,high polyreactivity
18,QVQLVESGGGLVQAGGSLRLSCAASGSIFVDNAMGWYRQAPGKERELVAVITLRSGSTNYADSVKGRFTISRDNAKNTVYLQMNSLKPEDTAVYYCAADDTYHDYQRDTDDDYWGQGTQVTVSS,low polyreactivity
19,QVQLVESGGGLVQAGGSLRLSCAASGSIFVDYTMGWYLQAPGKERELVARITSGGSTYYADSVKGLFTISRDNAKNTVYLQMIRLNPEDTAVYYCAARPYYRYRNSWREQYYYWGQGTQVSVSS,high polyreactivity
20,QVQLVESGGGLVQAGGSLRLSCAASGSIFVEYAMGWYRQAPGKERELVAGISSGGITSYADSVKGRFTISRDNAKNTVYLQMNSLKPEDTAVYYCATDPYKWFFSSYYLLQEVEYWGQGTQVTVSS,low polyreactivity
21,QVQLVESGGGLVQAGGSLRLSCAASGSIFVFYARGWSRQAPGKERELVAAITSGGRTYYADSVKGRFTISRDNAKNTVYLQMNSLKPEDTAVYYCNAVRFYSIGLGQDDYWGQGTQVTVSS,low polyreactivity
